# Test results taken from PMC3902904, “Intrinsically disordered regions of nucleophosmin/B23 regulate its RNA binding activity through their inter- and intra-molecular association” (Nucleic Acids Research, 2013).
# B1: GST-B23.1-A (domain or fragment, human, UniProt P06748 120-188, looked up)
# chain: EEDAESEDEEEEDVKLLSISGKRSAPGGGSKVPQKKVKLAADEDDDDDDEEDDDEDDDDDDFDDEEAEE
# notes: nucleophosmin NPM1/B23, variant B23.1 (longest variant), human, amino acids 120-188 (acidic IDR); The construction of pGEX2T-B23.1-A is not described in the methods; also called GST-tagged B23-A; aIDR; source: E. coli BL21 (DE3), purified (Glutathione sepharose, MNase-treated)
# Tests used:
# GST-B23.1-CR (human) = experiment: GST pull-down; conditions: total RNA, 300 mM NaCl wash; Sucrose gradient 15-40%, 5 µg protein with 10 µg 293T total RNA (buffer not given in the material); GST pull-down 2 µg protein, 5 µg total RNA, wash 300 mM …
# GST-B23.1-CRD (human) = experiment: GST pull-down; conditions: total RNA, 300 mM NaCl wash; Sucrose gradient 15-40%, 5 µg protein with 10 µg 293T total RNA (buffer not given in the material); GST pull-down 2 µg protein, 5 µg total RNA, wash 300 mM …
# His-B23.1-ΔN (human) = His-B23.1-ΔN (human) (UniProt P06748); experiment: cross-linking; 0.1% glutaraldehyde, 10 min, room temperature, 20 mM Hepes-NaOH pH 7.9, 50 mM NaCl; SDS-PAGE, CBB staining; increased protein concentration (3.0 and 4.5 µM; lanes 5 and 6 at 4.5 µM)
# GST-B23.1-CR1 = molecular target: T1, GST-B23.1-CR1 (human, UniProt P06748 189-259); experiment: native gel or EMSA; GST-B23.1-A (0.5 µg) mixed with increasing amounts (0.5, 1.0, 2.0, 4.0 µg) of the other GST-tagged fragment in 10 µl buffer H, 30 min, room temperature; 6% native PAGE in 0.5x TBE, CBB staining; conditions: both partners purified
# T1 construct: nucleophosmin NPM1/B23, variant B23.1, human, amino acids 189-259 (basic IDR); limits are printed for B23.1-CR1 in the CD experiment; also called bIDR; basic IDR; source: E. coli BL21 (DE3), purified (Glutathione sepharose, MNase-treated)
# GST-B23.1-CR = molecular target: T2, GST-B23.1-CR (human, UniProt P06748 189-294); experiment: as above; conditions: both partners purified
# T2 construct: nucleophosmin NPM1/B23, variant B23.1, human, basic IDR and CTD; amplified with the same forward primer as CR1 (which begins at 189, KAPVKK) and the T7 terminator primer; also called unphosphorylated GST-B23.1-CR; source: E. coli BL21 (DE3), purified (Glutathione sepharose, MNase-treated)
# GST-B23.1-CRA = molecular target: T3, GST-B23.1-CRA (human, UniProt P06748 189-294, threonine 199 replaced with alanine (A) | threonine 219 replaced with alanine …); experiment: as above; conditions: both partners purified
# T3 construct: nucleophosmin NPM1/B23, variant B23.1, human, B23.1-CR with threonines 199, 219, 234 and 237 replaced with alanine; source: E. coli BL21 (DE3), purified (Glutathione sepharose, MNase-treated)
# GST-B23.1-CRD = molecular target: T4, GST-B23.1-CRD (human, UniProt P06748 189-294, threonine 199 replaced with aspartic acid (D) | threonine 219 replaced with …); experiment: as above; conditions: both partners purified
# T4 construct: nucleophosmin NPM1/B23, variant B23.1, human, B23.1-CR with threonines 199, 219, 234 and 237 replaced with aspartic acid; also called phosphomimetic mutant; source: E. coli BL21 (DE3), purified (Glutathione sepharose, MNase-treated)
# T4 sequence (P06748 other isoform, or with tags, fused parts or gaps with the stated changes): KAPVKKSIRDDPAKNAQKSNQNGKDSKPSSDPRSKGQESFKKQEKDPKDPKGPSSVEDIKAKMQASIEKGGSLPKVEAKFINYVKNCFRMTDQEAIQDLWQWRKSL
# T2 sequence (P06748 189-294): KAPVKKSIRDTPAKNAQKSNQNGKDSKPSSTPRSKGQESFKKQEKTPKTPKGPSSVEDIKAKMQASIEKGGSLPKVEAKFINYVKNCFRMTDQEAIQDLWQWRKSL
# T1 sequence (P06748 189-259): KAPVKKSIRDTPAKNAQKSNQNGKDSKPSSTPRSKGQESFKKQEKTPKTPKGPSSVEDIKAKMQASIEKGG
# T3 sequence (P06748 other isoform, or with tags, fused parts or gaps with the stated changes): as the sequence (P06748 189-294) above, with T11A, T31A, T46A, T49A counted along it
molecule,measurement,setting,value
18S rRNA,binding signal (% (reference)),GST-B23.1-CR (human),100
same,binding signal (% of GST-B23.1-CR),GST-B23.1-CRD (human),25
His-B23.1-ΔN (from UniProt P06748 120-294) (domain or fragment),stoichiometry N,His-B23.1-ΔN (human),2
28S rRNA,binding signal (% (reference)),GST-B23.1-CR (human),100
same,binding signal (% of GST-B23.1-CR),GST-B23.1-CRD (human),35
B1,binding result,GST-B23.1-CR1,binds
same,binding result,GST-B23.1-CR,binds
same,binding result,GST-B23.1-CRA,binds
same,binding result,GST-B23.1-CRD,binds
